In the nanobody polyreactivity screen of Harvey et al. (2022):

Test: yeast display, Sf9 membrane polyspecificity reagent, FACS + sequencing; frameworks hold sequencing errors
Method in brief: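 A synthetic nanobody library was expressed on Saccharomyces cerevisiae BJ5465 by galactose induction for 36–48 hours. The library was stained for 1 hour at 4 °C with 10% biotinylated, detergent-solubilized Sf9 membrane reagent and enriched with streptavidin microbeads before FACS. Low and high (top ~1%) gates were set on anti-HA fluorescence for expression and streptavidin fluorescence for reagent binding, and each polyreactivity label reflects the gate of origin.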

Sequence	polyreactivity (PSR sort gate)
QVQLVESGGGLVQAGGSLRLSCAASGSYFDYYAMGCYTQAPGKERELVAAISWRGGTTYYADSVKGRFTISRDTAKKTVYLQMNSLKPEETAVYYCNADKRFRRYDYWGQGTQVTVSS	high polyreactivity
QVQLVESGGGLVQAGGSLRLSCAASGTFAGNALGWYRQAPGKERELVASITTGVRTYYADSGKGRFTLSRDNAKNTVYLQMHCLKPEDTAVYYCAADRIRDLEFYYWGQGTQVTVSS	low polyreactivity
QVQLVESGGGLVQAGGSLRLSCAASGTFAGNAMGWYRQAPGKERELVAAITTGGRTYYADSVKRRFTISRDNAKNTLYIQMNSLKPEDTAVYYCAADRIRDLEFDYWGQGTQVTVSS	low polyreactivity
QVQLVESGGGLVQAGGSLRLSCAASGTFGYMGWYRQAPGKERELVAAITSRGGGNTYYADSVKGRFTISRDNAKNTVYLQMNSLKPEDTAVYYCAASRVGYHGQTYDYWGQGTQVTVSS	high polyreactivity
QVQLVESGGGLVQAGGSLRLSCAASGTFGYYTMGWYRQAPGKERELVAAITRSGGSTYYADSVKGRFTISRDNAKNTVYLQMNSLKPEDTAVYYFATELHAWSSWNRYRAYYYWGQGTQVTVSS	high polyreactivity
QVQLVESGGGLVQAGGSLRLSCAASGTFHKYAMGWYRQAPGKERELVASISRSGGSTSYADSVKGRFTISRDNAKNTVYLQMNSLKPEDTAVYYCNAYQSSGRYRNSYGYWGQGTQVTVSS	high polyreactivity
QVQLVESGGGLVQAGGSLRLSCAASGTFKWYAMGWYRQAPGKERELVAVISSSGGTTYYADSVKGRFTISRDNAKNTVYLQMNSLKPEDTAVYYCNVVKRRSDWGMDYWGQGTQVTVSS	high polyreactivity
QVQLVESGGGLVQAGGSLRLSCAASGTFSQYAMGWYRQAPGKERQLVAAISQGGGSTYYADSVKGRFTISRDNAKNTVYLQMNSLKPEDTAVYYCARSRSYWGIVYGRYDYWGQGTQVTVSS	high polyreactivity
QVQLVESGGGLVQAGGSLRLSCAASGTFSYYAMGWYIQAPGKERELVATIRSGGRTYYADSVKGRFTISRDNAKNTVYLQMNSLKPEDTAVYYCAKTGFLGLRQYGYWGQGTRVTVSS	high polyreactivity
QVQLVESGGGLVQAGGSLRLSCAASGTFVKYARGWYRQAPGKERELVATITGSGGSTYYADSVKGRFTISRDNAKNTVYLQMNSLKPEDTAVYYCAAREGYVFYKYDYWGQGTQVTVSS	low polyreactivity
QVQLVESGGGLVQAGGSLRLSCAASGTFYKYSMGWYRQAPGKERELVAAISWRGGRTYADSVKGRFTISRDNAKNTVYLQMNSLKPEDTAVYYCNKRFYPEHYYWGQGTQVTVSS	high polyreactivity
QVQLVESGGGLVQAGGSLRLSCAASGTFYYYAMGWYRQAPGKERDLVAGITSGGSTYYADSVKGRFTISRDNAKNTVYLQMNSLKPEDTAVYYCNTKVISRTSERRGNGFTRYDYWGQGTQVTVSS	low polyreactivity
QVQLVESGGGLVQAGGSLRLSCAASGTFYYYAMGWYRQAPGKERELVAAIDYSGGSTYYADSVKGRFTISRDNAKNTVYLQMNSLKPEDTAVYYCAYVSVYDFEFWGQGTQVTVSS	high polyreactivity
QVQLVESGGGLVQAGGSLRLSCAASGTIFAANAMGWYRQAPGKERELVAAISSGDGTYYADSVKGRFTISRDNAKNTVYLQMNSLKPEDTAVYYCAARFTYYSGYYAGSYGYWGQGTQVTVSS	high polyreactivity
QVQLVESGGGLVQAGGSLRLSCAASGTIFAPNAMGWYRQAPGKERELVAAISRSGGRTYYADSVKGRFTISRDNAKNTVYLQMNSLKPEDTAVYYCAADYKHQRTYGSWGQGTQVTVSS	high polyreactivity
QVQLVESGGGLVQAGGSLRLSCAASGTIFATYAMGWYRQAPGKERELVAAITSSDGSTNYADSVKGRFTISRDNAKNTVYLQMNSLKPEDTAVYYCAKDTPQSYFRYDYLGQGTQVTVSS	low polyreactivity
QVQLVESGGGLVQAGGSLRLSCAASGTIFDDNAMGWYRHAPGKERELVAAISANDGSTYYADSVKGRFTISRDNAKNTVYLQMNSLKQEDTAVYYCAVLRVETVDIWEYDYWGQGTQVTVTS	low polyreactivity
QVQLVESGGGLVQAGGSLRLSCAASGTIFFFYVMGWYRQAPGKERELVAAITYSGGSTFYADSVKGRFTISRDNAKNTVYLQMNSLKPEDTAVYYCAAVYGQWTPLDPYNHWGQGTQVTVSS	low polyreactivity
QVQLVESGGGLVQAGGSLRLSCAASGTIFLVYAMGWYIQAPGKERELVAAITFSGGDTYADSVKGRFTISRDNAKNTVYLQMNSLKPEDTAVYYCNAPWPYYGSVVGQDFDYWGQGTQVTVSS	low polyreactivity
QVQLVESGGGLVQAGGSLRLSCAASGTIFQQYAMGWYRQAPGKERELVAAISYSGGTTYYADSVKGRFTISRDNAKNTVYLQMNSLKPEYTSVYYCAAYYPSGSYDYYWGQGTQVTVSS	low polyreactivity
QVQLVESGGGLVQAGGSLRLSCAASGTIFSRNAMGWYRQAPGKERELVAAINARGGSTYYADSVKGRFTISRDNAKNTVYLQMNSLKPEDTAVYYCAARYGVGRADYYWGQGTQVTVSS	high polyreactivity
QVQLVESGGGLVQAGGSLRLSCAASGTIFTDNVMGWYRQAPGKERELVAAITYSAASTYYADSVKGRFTISRDNAKNTVYLQMNSLKPEDTAVYYCNADDPDYLVSYRYDYWGQGTQVTVSS	low polyreactivity

Sequence	polyreactivity (PSR sort gate)
QVQLVESGGGLVQAGGSLRLSCAASGTIPGYAMGWYRQAPGKETELVAAITWSDDSTFYADSVKGRFTISRDNAKNTVYLQMNSLKPEDTAVYYCAAEYVVSTQEFDYWGQGTQVTVSS	low polyreactivity
QVQLVESGGGLVQAGGSLRLSCAASGTISASYAMGWYRQATGKERELVAAISSGGDTNYADSVKGRFTISRDNAKNTVYLQMNSLKPEDTAVYYCAADTDSDQGSEYDYWGQGTQVTVSS	low polyreactivity
QVQLVESGGGLVQAGGSLRLSCAASGTTFGRNAMGWYRQAPGKERELVAAITACGGTTYYADSVKGRFTISRDNAKNTVYLQMNSLKPEDTAVYYCARAGHFSFKYDYWGQGTQVTVSS	low polyreactivity
QVQLVESGGGLVQAGGSLRLSCAASGTTFPIYAMGWYRQAPGKERELVADITSTGSTDYADSVKGRFTISRDNAKNTVYLQMNSLKPEDTAVYYCAAAWKAYRRYGYWGQGTQVTVSS	high polyreactivity
QVQLVESGGGLVQAGGSLRLSCAASGTTFYRNAMGWYRQAPGKERELVAAISWTGGRTYYADSVKGRFTISRDNAKNTVYLQMNSLKPEDTAVYYCNKGDSASSLDYWGQGTQVTVSS	high polyreactivity
QVQLVESGGGLVQAGGSLRLSCAASGTTISANAMGWYRQAPGKERELVAAIRWSDGRTYYADSVKGRFTISRDNAKNTVYLQMNSLKPEDTAVYYCNRVLSYHRHKLGMGYWGQGTQVTVSS	high polyreactivity
QVQLVESGGGLVQAGGSLRLSCAASGTTLYYYAMGWSRQAPGKERELVASITKSGASTYYADSVKGRFTISRDNAKNTVYLQMNSLKPEDTAVYYCARDPFWRGYTPRHYNYWGQGTQVTVSS	low polyreactivity
QVQLVESGGGLVQAGGSLRLSCAASGVIFGRYAMGWYREAPGKERELVAAISWGGGSTRYADSVKGRFTISRDNAKNTVYLQMNSLKPEDTAVYYCAAYRYWGRTSYSYDYWGQGTQVTVSS	high polyreactivity
QVQLVESGGGLVQAGGSLRLSCAASGVIFLWYAMGWYRQAPGKERELVARISNGGSTYYADSVKGRFTISRDNAKNTVYLQMISLKPEDTAVYYCNKVYYWIAYGHRSYLMDYWGQGTQVTVSS	high polyreactivity
QVQLVESGGGLVQAGGSLRLSCAASGVIFNRYAMGWYRQAPGKERELVAAISSGGNTHYADSVKGRFTISRDNAKNTDYLQMNSLKPEDTAVYYCAKAFRHSTFFAPYDYWGQGTQVTVSS	low polyreactivity
QVQLVESGGGLVQAGGSLRLSCAASGVIFVNNGMGWYRQAPGKERELVAAISSGGSTNYADSVKGRFTIARDNAKNTDYLQMNSLKPEDTAVYYCAVVDYLWLLQLWLSDYWGQGTQVTVSS	low polyreactivity
QVQLVESGGGLVQAGGSLRLSCAASGVIFVWYAMGWYRQAPGKERELVAAISSGGSTYYADSVKGRFTISRDNAKNTVYLQMNSLKPEDTAVYYCAADLWYYAYSYDYWGQGTQVTVSS	high polyreactivity
QVQLVESGGGLVQAGGSLRLSCAASGVTFAHNAMGWYRQAPGKERELVAAITRSGGSTYYADSVKGRFTISRDNAKNTVYLQMNSLKPEDTAVYYCIAGRRGSGYGYWGQGTQVTVSS	high polyreactivity
QVQLVESGGGLVQAGGSLRLSCAASGVTFYAYAMAWYRQAPGKERELVAVISQSGTRTYYADSVKGRFTISRDNAKNTVYLQMNSLKPEDTAVYYCAAPKAQLQPYYYWGQGTQVTVSS	high polyreactivity
QVQLVESGGGLVQAGGSLRLSCAASGYAMGWYRQAPGKERELGAAITSGGSTNYADSVKGRFTISRDNAKNTVYLQMNSVKPEDTAVYYCAAAYSLYGHRYDYWGQGTQVTVSS	low polyreactivity
QVQLVESGGGLVQAGGSLRLSCAASGYAMGWYRQAPGKERELVAAISWSGDITYADSVKGRFTISRDNAKNTVYLQMNRLKPEDTAVYYCNADRYTGRDGEQSLDYWGQGTQVTVSS	low polyreactivity
QVQLVESGGGLVQAGGSLRLSCAASGYIFALNAMGWYRQAPGKERELVASITGAGSTNYADSVKGRFTISRDNAKNTVYLQMNSLKPEDTAVYYCAKRTRRRGYYYWGQGTQVTVSS	high polyreactivity
QVQLVESGGGLVQAGGSLRLSCAASGYIFARYAMGWYRQAPGKERELVASISRRGTSTYYADSVKGRFTISRDNAKNTDYLQMNSLKPEDTAVYYCNKEYYIYRTGTIGERSDMGYWGQGTQVTVSS	high polyreactivity
QVQLVESGGGLVQAGGSLRLSCAASGYIFAYYAMGWYRQAPGKERELVATIRSGGSTNYADSVKGRFTISRDNAKNTGYLQMNILKPEDTAVYYCARDDATACDYWGQGSQVTVSS	low polyreactivity
QVQLVESGGGLVQAGGSLRLSCAASGYIFDGNAMGLYRQAPGKERELVASISSGTSTYYADSVKGRFTISRDNAKNTVYLQMNSLKPEATAVYYCNAGVEFAASLYYSDNYDYWGQGTQVTVSS	low polyreactivity
QVQLVESGGGLVQAGGSLRLSCAASGYIFDRYAMGWYRQAPGKERELVAAISGRGGSTYYADSVKGRFTISRDNAKNTVYLQMNSLKPEDTAVYYCARDVYVRIGQRARYDSWGQGTQVTVSS	high polyreactivity
